From patent publication US20210324066A1

What was measured:
[1] = molecular target: LIGHT standard recombinant antigen (UniProt O43557); experiment: Simoa sandwich immunoassay, Enzo ALX-804-841-C100 capture with ProSci RF16062 detection, free LIGHT in diluent; signal inhibited by DcR3 as competitor
[2] = molecular target: LIGHT standard recombinant antigen (UniProt O43557); experiment: Simoa sandwich immunoassay, Enzo ALX-804-841-C100 capture with ProSci RF16062 detection, free LIGHT in diluent; uninhibited signal in the inhibition formula
[3] = molecular target: native free LIGHT (TNFSF14) in serum and plasma samples (UniProt O43557); experiment: antibody competition: serum and plasma samples incubated with 50 µg/mL free capture antibody for 35 minutes before the Simoa free LIGHT assay; treated against untreated sample concentration

Substance: Enzo ALX-804-841-C100 (antibody)
- MFI [1]: 361 MFI
- MFI [2]: 9940 MFI
- % Recovery [3]: 0%
